Where two headings read alike, the source gives them in different places.
T1: monkey CD3ε protein (monkey, UniProt Q95LI5 22-117, limits assumed)
T1 sequence (looked up): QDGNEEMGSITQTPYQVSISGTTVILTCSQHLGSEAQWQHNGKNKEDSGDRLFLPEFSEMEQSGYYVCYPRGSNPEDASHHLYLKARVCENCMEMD


Key:
[1] = biological target: T2, recombinant human CD3ε-ECD His protein (human, UniProt P07766 23-126); test: SPR, antibody captured on Protein A chip
T2 construct: extracellular domain; also called human CD3ε-His; CD3ε antigen protein; not shown: His tag
T2 sequence (P07766 23-126): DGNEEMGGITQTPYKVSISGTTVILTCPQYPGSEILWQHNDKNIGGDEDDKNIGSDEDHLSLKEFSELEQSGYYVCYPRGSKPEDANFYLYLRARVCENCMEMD
Method: (§1) Running buffer was HBS-EP+(10 mM HEPES, 150 mM NaCl, 3 mM EDTA, 0.05% surfactant P20) (GE Healthcare; BR-1006-69). The flow-through cell was set to 25° C. The sample block was set to 16° C. Both were pretreated with the running buffer. In each cycle, an antibody to be detected was first captured with a Protein A chip, and then a single concentration of CD3ε antigen protein was injected. The binding and dissociation processes of the antibody and the antigen protein were recorded, and finally Glycine pH 1.5 (GE Healthcare; BR-1003-54) was used to complete chip regeneration. The binding was measured by injecting different concentrations of recombinant human CD3ε proteins in a solution for 240 s with a flow rate of 30 μL/min. The concentration started from 200 nM (see the detailed results for the actual concentration in the test) and was diluted at 1:1, making a total of 5 concentrations. The dissociation phase was monitored for up to 600 s and was triggered by switching from sample solution to running buffer. The surface was regenerated by washing with a 10 mM glycine solution (pH 1.5) for 30 s at a flow rate of 30 μL/min. Bulk refractive index difference was corrected by subtracting the response obtained from the goat anti-human Fc surface, and the blank injection was subtracted at the same time (=double reference). For calculation of apparent KD value and other kinetic parameters, Langmuir 1:1 model was used.

[2] = biological target: T3, human CD3ε/δ-His (human, UniProt P07766 23-126; P04234 22-105); test: SPR, antibody captured on Protein A chip
T3 construct: Bought recombinant heterodimer with His tag; also called human CD3ε/δ protein
T3 sequence (P07766 23-126, stated change not applied, form in doubt, chain 1 of 2): as the sequence (P07766 23-126) above
T3 sequence (P04234 22-105, stated change not applied, form in doubt, chain 2 of 2): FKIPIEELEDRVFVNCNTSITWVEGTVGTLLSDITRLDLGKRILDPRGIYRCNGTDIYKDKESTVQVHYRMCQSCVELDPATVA
Method: as §1

[3] = biological target: T1, monkey CD3ε protein; test: ELISA, coated antigen
Method: (§2) To detect the binding activity of the humanized antibodies to CD3 protein, CD3 protein was diluted with PBS to the final concentration of […], then added to a 96-well ELISA plate at 50 μL/well, and the plate was sealed with a plastic film, and incubated overnight at 4° C. On the next day, the plate was washed 2 times with PBS, and a blocking solution [PBS+2% (v/v) BSA] was added for blocking at room temperature for 2 h. The blocking solution was poured off, and the antibody (initial concentration of 100 nM, and gradient dilution at 1:10) or a negative control antibody was added at 50 µl/well. After incubation at 37° C. for 2 h, the plate was washed 3 times with PBS. […] TMB substrate was added at 50 μl/well, and incubated at room temperature for 10 min, and then a stop solution (1.0 N HCl) was added at 50 μl/well. The OD450 nm values were read by an ELISA microplate reader (Multimode Plate Reader, EnSight, purchased from Perkin Elmer).
(§3) To detect the binding activity of the humanized antibodies to monkey CD3 protein, CD3 protein was diluted with PBS to the final concentration of […], and then added to a 96-well ELISA plate at 50 μl/well.

[4] = biological target: T4, monkey CD3ε/δ-His (monkey, UniProt Q95LI5 22-117; Q95LI8 22-105); test: ELISA, coated antigen
T4 construct: Bought recombinant heterodimer with His tag
T4 sequence (Q95LI8 22-105, stated change not applied, form in doubt, chain 2 of 2, one chain of several): as the sequence (P04234 22-105, stated change not applied, form in doubt, chain 2 of 2) above, with I5V, N15K, I20V, S32T, D33N, I34N, T64A, S74N, V83L counted along it
Method: as §2, §3

[5] = biological target: T5, human CD3 on the cell surface (Jurkat cells, expanded human T cells, Jurkat-Lucia NFAT cells, human PBMC) (human, UniProt P07766 23-207; P04234 22-171; P09693 23-182); test: FACS, expanded human T cells
T5 construct: whole, on cells; Endogenous CD3 within the TCR-CD3 complex on cells (also zeta chains and TCR); the cell type is named under assay
T5 sequence (P07766 23-207, chain 1 of 3): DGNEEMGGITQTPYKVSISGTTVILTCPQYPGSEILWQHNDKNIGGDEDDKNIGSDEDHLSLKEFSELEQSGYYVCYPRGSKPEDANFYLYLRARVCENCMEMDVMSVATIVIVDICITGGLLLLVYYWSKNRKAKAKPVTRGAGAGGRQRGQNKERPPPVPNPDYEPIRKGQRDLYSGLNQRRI
T5 sequence (P04234 22-171, chain 2 of 3): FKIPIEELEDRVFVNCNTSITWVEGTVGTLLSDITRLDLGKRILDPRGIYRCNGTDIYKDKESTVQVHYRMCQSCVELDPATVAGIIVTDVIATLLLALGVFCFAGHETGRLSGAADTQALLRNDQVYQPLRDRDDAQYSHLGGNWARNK
T5 sequence (P09693 23-182, chain 3 of 3): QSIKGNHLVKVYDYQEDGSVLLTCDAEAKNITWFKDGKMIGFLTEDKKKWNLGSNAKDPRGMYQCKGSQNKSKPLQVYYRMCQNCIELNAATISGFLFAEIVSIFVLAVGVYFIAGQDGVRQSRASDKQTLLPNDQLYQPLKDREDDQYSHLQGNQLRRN
Method: (§4) The binding of the chimeric antibodies to CD3 on the cell surface was analyzed by detecting the binding of the antibodies to Jurkat cells and human T cells. Suspension cells Jurkat cells were scale-up cultured in T-75 cell culture flasks to the logarithmic growth phase, the supernatant of the medium was discarded by centrifugation, and the cell pellet was washed 2 times with PBS for later use. The expanded human T cells were washed 2 times with PBS for later use. After counting the cells in the previous step, the cell pellet was resuspended with [PBS+2% (w/w) BSA] blocking solution to 4×10⁶ cells/ml, and added to a 96-well FACS reaction plate at 50 μl/well, and then the chimeric antibody to be tested was added at 50 μl/well, and incubated at 4° C. for 1 h. The cells were centrifuged and washed 3 times with a PBS buffer. […] The cells were centrifuged and washed 5 times with PBS, and FACS (FACS Canto™, purchased from BD Company) was used for detection and result analysis. Data analysis was performed by software (CellQuest) to obtain the mean fluorescence […] (MFI) of the cells. And then software (GraphPad Prism8) was used for analysis, data fitting, and EC50 value calculation. The same method was used to simultaneously detect the binding of the chimeric antibodies to endogenous CD3 negative cells MOLT4 cells.
The expanded human PBMC cells were collected, and FACS detection and data analysis were performed according to the method in Example 5.1.

[6] = biological target: T6, cynomolgus monkey CD3 on the surface of expanded monkey T cells (cynomolgus monkey, UniProt Q95LI5 22-198; Q95LI8 22-171; Q95LI7 23-181); test: FACS, expanded monkey T cells
T6 construct: whole, on cells; Endogenous CD3 within the TCR-CD3 complex on T cells expanded from cynomolgus monkey PBMC
T6 sequence (Q95LI5 22-198, chain 1 of 3): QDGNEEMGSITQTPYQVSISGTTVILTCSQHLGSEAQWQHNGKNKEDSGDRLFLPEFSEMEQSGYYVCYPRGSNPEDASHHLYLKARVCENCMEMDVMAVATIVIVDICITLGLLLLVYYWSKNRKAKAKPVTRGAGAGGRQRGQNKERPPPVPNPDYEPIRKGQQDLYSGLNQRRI
T6 sequence (Q95LI8 22-171, chain 2 of 3): as the sequence (P04234 22-171, chain 2 of 3) above, with I5V, N15K, I20V, S32T, D33N, I34N, T64A, S74N, V83L, H141R counted along it
T6 sequence (Q95LI7 23-181, chain 3 of 3): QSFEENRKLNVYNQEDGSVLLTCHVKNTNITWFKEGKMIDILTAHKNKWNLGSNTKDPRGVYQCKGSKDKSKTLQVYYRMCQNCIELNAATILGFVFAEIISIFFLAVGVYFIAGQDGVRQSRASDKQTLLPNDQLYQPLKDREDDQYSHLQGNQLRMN
Method: as §4
The expanded monkey T cells were collected, and FACS detection and data analysis were performed according to the method in Example 5.1.

[7] = biological target: T2, recombinant human CD3ε-ECD His protein; test: ELISA, coated antigen
Method: as §2

[8] = biological target: T3, human CD3ε/δ-His; test: ELISA, coated antigen
Method: as §2

[9] = biological target: T5, human CD3 on the cell surface (Jurkat …); test: cell-based or functional assay
[10] = biological target: T5, human CD3 on the cell surface (Jurkat …); test: FACS, expanded human T cells; remark: listed apart in the source
Method: as §4

[11] = biological target: T6, cynomolgus monkey CD3 on the surface of …; test: FACS, expanded monkey T cells; remark: listed apart in the source
Method: as §4
FACS detection and data analysis were performed on the cryopreserved monkey T cells of Example 2.4 according to the method in Example 5.1.

[12] = biological target: T2, recombinant human CD3ε-ECD His protein; test: SPR (Biacore), antibody captured on Protein A chip
Method: Sample buffer and running buffer were HBS-EP+(10 mM HEPES, 150 mM NaCl, 3 mM EDTA, 0.05% surfactant P20) (GE Healthcare; BR-1006-69). The flow-through cell was set to 25° C. The sample block was set to 16° C. Both were pretreated with the running buffer. In each cycle, the antibody to be detected was first captured with a Protein A chip, and then a single concentration of CD3ε antigen protein (purchased from Sino Biological, Inc. (China), catalog number: 10977-H08H) was injected. The binding and dissociation processes of the antibody and the antigen protein were recorded, and finally a glycine solution (pH 1.5, GE Healthcare; BR-1003-54) was used to complete chip regeneration. The binding was measured by injecting different concentrations of recombinant human CD3ε-ECD His proteins in a solution for 240 s with a flow rate of 30 μL/min. The concentration started from 200 nM (see the detailed results for the actual concentration in the test) and was diluted at 1:1, making a total of 5 concentrations. The dissociation phase was monitored for up to 600 s and was triggered by switching from sample solution to running buffer. The surface was regenerated by washing with a 10 mM glycine solution (pH 1.5) for 30 s at a flow rate of 30 μL/min. Bulk refractive index difference was corrected by subtracting the response obtained from the goat anti-human Fc surface. Blank injection was also subtracted (=double reference). For calculation of apparent KD and other kinetic parameters, Langmuir 1:1 model was used.

[13] = biological target: T5, human CD3 on the cell surface (Jurkat …); test: FACS, Jurkat cells
Method: as §4

Binder | Kd [1] [nM] | koff [1] [s⁻¹] | kon [1] [M⁻¹ s⁻¹] | Kd [2] [nM] | koff [2] [s⁻¹] | kon [2] [M⁻¹ s⁻¹] | EC50 [3] [nM] | max-OD450 [3] [OD450] | EC50 [4] [nM] | EC50 (nM), luciferase reporter, Jurkat-Lucia NFAT cells [9] [nM] | Maximum response value (RLU) [9] [RLU] | EC50 [10] [nM] | MFI_Max [10] [MFI] | EC50 [11] [nM] | MFI_Max [11] [MFI] | Kd [12] [nM] | koff [12] [s⁻¹] | kon [12] [M⁻¹ s⁻¹] | EC50 [13] [nM] | MFI_Max [13] [MFI] | other results
5-7.13 human-murine chimeric antibody (antibody, human IgG1, kappa, V domains shown, Human IgG1 chimera) VH: QVQLQQPGTELVKPGASVKLSCKASGYTFTSYWVHWVKQRPGQGLEWIGNINPSDGVTNYNEKFKSRATLTVDKSSSTAYMQLSSLTSEDSAVYYCTRDAYGQYYFDDWGQGTTLTVSS VL: DIVMSQSPSSLVVSAGEKVTMSCKSSQSLLNSRTRKNYLAWYQQKPGQSPKLLIYWASVRDSGVPDRFTGSGSGTDFTLTISNVQAEDLAVYYCIQSYYLRTFGGGTILEIKR | – | – | – | – | – | – | – | – | – | 0.7 | 55400 | 0.1 | 15900 | 0.09 | 26500 | 0.345 | 0.00027 | 785000 | 0.06 | 32200 | –
6-44.5 human-murine chimeric antibody (antibody, human IgG1, kappa, V domains shown, Human IgG1 chimera) VH: EVQLQQSGPELVKPGASVKMSCKASGHTFTSHIMHWVKQKPGQGLEWIGYINPNNDRTEYSEKFKGKATLTSDKSSSTAYMELSSLTSEDSAVYYCAGEAYYSNSLYAMDYWGQGTSVTVSS VL: DIVMSQSPSSLAVSAGEKVTMSCKSSQSLFNSRTRKNYLAWYQQKPGQSPELLIYWASTRESGVPVRFTGSGSGTDFTLTISSVQAEDLAVYYCKQSYYLRTFGGGTKLEVKR | – | – | – | – | – | – | – | – | – | 1.84 | 33600 | 0.62 | 13300 | 0.42 | 27100 | 0.445 | 0.000259 | 581000 | 0.15 | 31700 | –
5-40.21 human-murine chimeric antibody (antibody, human IgG1, kappa, V domains shown, Human IgG1 chimera) VH: QVQLQQPGSELVRPGASVKLSCKASGYTFTSYWMHWVKQRPGQGLEWIGNTYPGSGSTNYDEKFKSKATLTVDSSSSTAYMQLSSLTSEDSAVYYCTRDRYGVYYFDYWGQGTTLTVSS VL: DIVMSQSPSSLAVSAGEKVTMSCKSSQSLLNSRTRKNYLAWYQQKPGQSPKLLIYWASTRESGVPDRFSGSGSGTDFTLTISSVQAEDLAVYYCTQSYNLRTFGGGTKLEIKR | – | – | – | – | – | – | – | – | – | 4.79 | 46200 | 0.99 | 11400 | 1.09 | 24400 | 0.553 | 0.000379 | 686000 | 0.44 | 26700 | –

Further lines, with some results ahead:

Kd [1] [nM] | koff [1] [s⁻¹] | kon [1] [M⁻¹ s⁻¹] | Kd [2] [nM] | koff [2] [s⁻¹] | kon [2] [M⁻¹ s⁻¹] | EC50 [3] [nM] | max-OD450 [3] [OD450] | EC50 [4] [nM] | EC50 (nM), luciferase reporter, Jurkat-Lucia NFAT cells [9] [nM] | Maximum response value (RLU) [9] [RLU] | EC50 [10] [nM] | MFI_Max [10] [MFI] | EC50 [11] [nM] | MFI_Max [11] [MFI] | Kd [12] [nM] | koff [12] [s⁻¹] | kon [12] [M⁻¹ s⁻¹] | EC50 [13] [nM] | MFI_Max [13] [MFI] | Binder | other results
3.64 | 0.000305 | 83600 | 113 | 0.0134 | 119000 | 0.000106 | 3.09 | 0.0124 | – | – | – | – | – | – | – | – | – | – | – | 1-22.6-1-H2a-L2a humanized antibody (antibody, human IgG1, kappa, V domains shown, also called 1-22.6-H2a-L2a) VH: EVQLVQSGSELKKPGASVKVSCKTSGYTFTSYGMSWVRQAPGQGLEWMGWINTYSGVPTYAQDFKGRFVFSLDTSVSTAYLQISSLKAEDTAVYYCARLKNNPFVWGQGTTVTVSS VL: DIVMTQSPDSLAVSLGERATINCRSSQLILHSSGNTYLEWYQQKPGQSPKLLIYKVSNRFSGVPDRFSGSGSGTDFTLTISSLQAEDVAVYYCFQGSHFPWTFGGGTKVEIKR | max-OD450 [4]: 3.23 OD450; EC50 [5]: 11 nM; max_MFI [5]: 15900 MFI; EC50 [6]: 6.92 nM; max_MFI [6]: 12300 MFI; EC50 [7]: 0.1 nM; max-OD450 [7]: 1.49 OD450; EC50 [8]: 0.45 nM; max-OD450 [8]: 3.29 OD450
1.87 | 0.000485 | 260000 | 115 | 0.0184 | 161000 | 0.000467 | 2.84 | 0.00456 | – | – | – | – | – | – | – | – | – | – | – | 5-40.21-H3-L1 humanized antibody (antibody, human IgG1, kappa, V domains shown) VH: EVQLVQSGAEVKKPGASVKVSCKASGYTFTSYWMHWVRQAPGQGLEWMGNTYPGSGSTNYDEKFKSRVTITVDSSASTAYMELSSLRSEDTAVYYCTRDRYGVYYFDYWGQGTTVTVSS VL: DIVMTQSPDSLAVSLGERATINCKSSQSLLNSRTRKNYLAWYQQKPGQSPKLLIYWASTRESGVPDRFSGSGSGTDFTLTISSLQAEDVAVYYCTQSYNLRTFGGGTKVEIKR | max-OD450 [4]: 3.16 OD450; EC50 [5]: 1.65 nM; max_MFI [5]: 18000 MFI; EC50 [6]: 0.73 nM; max_MFI [6]: 17800 MFI; EC50 [7]: 0.13 nM; max-OD450 [7]: 1.53 OD450; EC50 [8]: 0.28 nM; max-OD450 [8]: 3.15 OD450

Reference: patent US20250136687A1 (SHANDONG SIMCERE BIOPHARMACEUTICAL, published 2025)
